Measurements as given in patent US20260242455A1 (SCHOLAR ROCK, published 2026).
Substitutions are numbered along the chain they refer to. Names may count otherwise.

B1: Ab13 (antibody, V domains shown)
VH: EVQLVQSGGGLVQPGRSLRLSCAASGFTFDDYAMHWVRQAPGKGLEWVSGISWNSGSIGYADSVKGRFTISRDNAKNSLYLQMNSLRAEDTALYYCAKDTSNGGYSSSSFDYWGQGTLVTVSS
VL: QSALTQPASVSGSPGQSITISCTGTSSDVGGYNYVSWYQQHPGTAPKLMIYDVSYRPSGVSNRFSGSKSGNTASLTISGLQAEDEADYYCSSYTSSSTLVFGTGTKVTVLG
notes: Fully human antibody
B2: Ab10 (antibody, V domains shown)
VH: EVQLVQSGGGVVQSGRSLRLSCVASGFSFSNYGMHWVRQAPGKGLEWLAFIWYDGSNKWYADSVKGRFTISRDNSKNALYLQMNSLRAEDTAVYYCARDRYSSSWGGGFDYWGQGTVLTVSS
VL: NFMLTQPHSVSESPGRTVTIPCSGRGGSIASDSVQWYQQRPGSAPTTIIYEDNQRPSGVPDRFSGSVDSSSNSASLTISGLRTEDEADYYCQSYDASSLWVFGGKTKLTVLG
notes: also called anti-pro/latent GDF8 antibody, Ab10
B3: Ab15 (antibody, V domains shown)
VH: EVQLVQSGGGLVQPGRSLRLSCAASGFTFDDYAMHWVRQAPGKGLEWVSGISWNSGSIGYADSVKGRFTISRDNSKNTLYLQMNSLRAEDTAVYYCAKVDGLEYSSGHNFDYWGQGTLVTVSS
VL: QSALTQPPSVSGSPGQSVTISCTGSSSDVGYYDHVSWYQHHPGRAPKVIIYDVTKRPSGVPDRFSGSKSGNTASLTISGLQAEDEADYYCSSYAGSYTWVFGGGTELTVLG
notes: Fully human antibody
B4: Ab11 (antibody, V domains shown)
VH: QLQLQQSGGGLVKPGGSLRLSCAASGFTFSSYSMNWVRQAPGKGLEWVSSISSSSSYIYYADSVKGRFTISRDNAKNSLYLQMNSLRAEDTAVYYCVRDRHSLGDFDYWGQGTLVTVSS
VL: SSELTQPSVSVSPGQTATITCSGDKLGDKYASWYQQKPGQSPVLVIYQDTKRPSGIPARFSGSNSGNTATLTISGTQAMDEAAYYCQAWDSTTVVFGGGTKLTVLG
notes: Fully human antibody
B5: Ab8 (antibody, V domains shown)
VH: QIQLVQSGAEVKKPGASVKVSCKASGYTFTSYGISWVRQAPGQGLEWMGWISAYNGNTNYAQKLQGRVTMTTDTSTSTAYMELSSLRSEDTAVYYCARVGFYDYVWGSYPYDAFDIWGQGTMVTVSS
VL: EIVMTQSPGTLSLSPGERATLSCRASQSVSSNYLAWYQQKPGQAPRLLIYDASNRATGIPARFSGSGSGTDFTLTISSLEPEDFALYYCQQYGTSPLTFGGGTKLEIKR
B6: Ab9 (antibody, V domains shown)
VH: QVQLVQSGAEVKKPGSSVKVSCKASGGTFSSYAISWVRQAPGQGLEWMGGIIPIFGTANYAQKFQGRVTITADESTSTAYMELSSLRSEDTAVYYCANHGLMDDSSGYYLSNAFDIWGQGTMVTVSS
VL: not shown
B7: Ab7 (antibody, V domains shown)
VH: QVQLQQSGAEVKKPGASVKVSCKASGYTFTSYYMHWVRQAPGQGLEWMGIINPSGGSTSYAQKFQGRVTMTRDTSTSTVYMELSSLRSEDTAVYYCARESLIRFLEDPQQGGMDVWGQGTTVTVSS
VL: QSALTQPASVSGSPGQSLTISCTGTSSDIGGYNYVSWYQQHPGKAPKLIIYDVTDRPSGVSGRFSGSKSGNTASLTISGLQTEDEAEYFCNSWTRSNNYIFGGGTKLTVLG
B8: Ab12 (antibody, V domains shown)
VH: QVQLVQSGGGLIQPGGSLRLSCAASGFTVSSYSMNWVRQAPGKGLEWVSYISSSGSTIYYADSVKGRFTISRDNAKNSLYLQMNSLRAEDTALYYCAKVGTAAAGDAFDIWGQGTMVTVSS
VL: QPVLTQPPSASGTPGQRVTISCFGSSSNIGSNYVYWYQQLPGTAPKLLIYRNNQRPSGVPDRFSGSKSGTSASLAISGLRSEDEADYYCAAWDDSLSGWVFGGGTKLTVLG
notes: Fully human antibody
B9: Ab14 (antibody, V domains shown)
VH: EVQLLESRAEVKKPGESLKISCKGSGYSFTSYWIGWVRQMPGKGPEWMGIIYPGDSDTRYSPSFQGQVTISADKSISTAYLQWSSLKASDTAMYYCARLVYGGYDEPGYYFDYWGQGTLVTVSS
VL: not shown
notes: Fully human antibody
B10: Ab1 (parental), IgG4 (S228P)/lambda (antibody, V domains shown)
VH: QIQLVQSGGGVVQPGRSLRLSCAASGFTFSSYGMHWVRQAPGKGLEWVAVISYDGSNKYYADSVKGRFTISRDNSKNTLYLQMNSLRAEDTAVYYCARDLLVRFLEWSHYYGMDVWGQGTTVTVSS
VL: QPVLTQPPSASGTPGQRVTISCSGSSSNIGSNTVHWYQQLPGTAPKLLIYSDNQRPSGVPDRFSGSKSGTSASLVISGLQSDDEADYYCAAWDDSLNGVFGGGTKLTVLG
notes: Fully human IgG4 (S228P), lambda; also called parental Ab1 IgG4; copies: 2 + 2
B11: Ab4 (germlined Ab3), IgG4 (S228P)/lambda (antibody, V domains shown)
VH: B10 VH with I2V, Q6E, T28A, N57I, Y110K
VL: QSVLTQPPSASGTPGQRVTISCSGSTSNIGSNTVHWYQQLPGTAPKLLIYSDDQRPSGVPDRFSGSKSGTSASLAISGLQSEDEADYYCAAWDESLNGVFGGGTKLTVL
notes: Human IgG4/lambda
B12: Ab6 (germlined Ab5), IgG4 (S228P)/lambda (antibody, V domains shown)
VH: B10 VH with I2V, Q6E, T28A, S56N, Y110K
VL: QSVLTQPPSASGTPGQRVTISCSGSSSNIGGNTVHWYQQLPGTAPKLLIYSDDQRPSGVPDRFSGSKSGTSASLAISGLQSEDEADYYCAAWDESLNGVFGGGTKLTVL
notes: Human IgG4/lambda

biological target: T1, murine pro-myostatin (mouse, UniProt O08689 25-376); test: ForteBio BLI
T1 construct: Recombinant in the BLI and reporter assays; endogenous mouse protein in the immunoprecipitation and immunofluorescence experiments; also called proGDF8 (mouse); Murine ProGDF8

Row | Binder | Kd [nM]
1 | B1 | 4.3
2 | B2 | 3.7
3 | B3 | 4.7
4 | B4 | 1.6
5 | B5 | 1.4
6 | B6 | 8.5
7 | B7 | 32.9
8 | B8 | 3.9

biological target: T2, murine latent myostatin (mouse, UniProt O08689 25-267; O08689 268-376, Non-covalent complex of prodomain and growth factor; disulfide-linked homodimer, one copy of each chain is given.); test: ForteBio BLI
T2 construct: recombinant in BLI, endogenous in serum immunoprecipitation; also called Murine Latent GDF8; copies: 2 + 2

Row | Binder | Kd [nM]
9 | B2 | 4.2
10 | B3 | 11
11 | B9 | 18.8
12 | B4 | 1.8
13 | B6 | 7.8
14 | B7 | 28.4
15 | B8 | 1.9

biological target: T3, mature myostatin growth factor (UniProt O14793 267-375, limits assumed); test: ForteBio BLI
T3 construct: mature; Amine-coupled to the sensor tips; also called Mature GDF8

Row | Binder | binding result | Kd [nM]
16 | B1 | no binding (tested: 333 nM) | 
17 | B2 | no binding (tested: 333 nM) | 
18 | B3 |  | 9.5
19 | B9 |  | 2.1
20 | B4 | no binding (tested: 333 nM) | 
21 | B5 | no binding (tested: 333 nM) | 
22 | B6 | no binding (tested: 333 nM) | 
23 | B7 | no binding (tested: 333 nM) | 
24 | B8 | no binding (tested: 333 nM) | 

biological target: murine pro + latent GDF11 (murine, UniProt Q9Z1W4 21-405, limits assumed); test: ForteBio BLI
Sequence (Q9Z1W4 21-405 limits assumed): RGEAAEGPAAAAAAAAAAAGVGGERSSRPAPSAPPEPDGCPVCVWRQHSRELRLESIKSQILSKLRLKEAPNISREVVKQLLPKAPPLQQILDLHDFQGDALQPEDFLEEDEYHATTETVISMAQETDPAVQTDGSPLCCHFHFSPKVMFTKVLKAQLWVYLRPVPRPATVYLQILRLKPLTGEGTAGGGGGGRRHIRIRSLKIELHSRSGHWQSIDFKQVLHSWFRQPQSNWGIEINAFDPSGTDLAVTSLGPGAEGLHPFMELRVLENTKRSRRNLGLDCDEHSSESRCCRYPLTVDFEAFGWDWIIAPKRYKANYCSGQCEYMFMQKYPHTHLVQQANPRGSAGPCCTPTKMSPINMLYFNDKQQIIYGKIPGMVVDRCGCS

Row | Binder | binding result
25 | B1 | no binding (tested: 200 nM)
26 | B2 | no binding (tested: 200 nM)
27 | B3 | no binding (tested: 200 nM)
28 | B9 | no binding (tested: 200 nM)
29 | B4 | no binding (tested: 200 nM)
30 | B5 | no binding (tested: 200 nM)
31 | B6 | no binding (tested: 200 nM)
32 | B7 | no binding (tested: 200 nM)
33 | B8 | no binding (tested: 200 nM)

biological target: murine latent GDF11 (murine, UniProt Q9Z1W4 21-296; Q9Z1W4 297-405, limits assumed); test: ForteBio BLI
Sequence (Q9Z1W4 21-296 limits assumed, chain 1 of 2): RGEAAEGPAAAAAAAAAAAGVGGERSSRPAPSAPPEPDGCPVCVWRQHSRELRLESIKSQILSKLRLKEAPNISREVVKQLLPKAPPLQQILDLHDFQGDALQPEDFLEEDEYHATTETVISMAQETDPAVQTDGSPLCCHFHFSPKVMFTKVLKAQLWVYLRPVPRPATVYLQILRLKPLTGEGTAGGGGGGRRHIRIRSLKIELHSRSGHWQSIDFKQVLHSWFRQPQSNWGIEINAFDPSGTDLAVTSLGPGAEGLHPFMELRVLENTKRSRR
Sequence (Q9Z1W4 297-405 limits assumed, chain 2 of 2): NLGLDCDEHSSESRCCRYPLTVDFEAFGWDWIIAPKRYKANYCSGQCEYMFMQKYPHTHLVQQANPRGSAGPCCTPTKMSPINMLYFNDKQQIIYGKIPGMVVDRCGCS

Row | Binder | binding result
34 | B1 | no binding (tested: 200 nM)
35 | B2 | no binding (tested: 200 nM)
36 | B3 | no binding (tested: 200 nM)
37 | B9 | no binding (tested: 200 nM)
38 | B4 | no binding (tested: 200 nM)
39 | B5 | no binding (tested: 200 nM)
40 | B6 | no binding (tested: 200 nM)
41 | B7 | no binding (tested: 200 nM)
42 | B8 | no binding (tested: 200 nM)

biological target: human pro-myostatin (human, UniProt O14793 24-375); test: cell-based or functional assay

Row | Binder | Human proGDF8 IC50, Reporter assay [nM]
43 | B2 | 772
44 | B5 | 6040
45 | B6 | 12200
46 | B7 | 983

biological target: T1, murine pro-myostatin; test: cell-based or functional assay

Row | Binder | Murine proGDF8 IC50, Reporter assay [nM]
47 | B5 | 139000
48 | B6 | 19900
49 | B7 | 1680

biological target: T1, murine pro-myostatin; test: cell-based or functional assay; remark: another data set of the same source

Row | Binder | Activity Assay - 293T cells EC50 [nM]
50 | B10 | 839

biological target: T1, murine pro-myostatin; test: cell-based or functional assay; remark: another data set of the same source

Row | Binder | Activity Assay - 293T cells EC50 [nM]
51 | B11 | 447

biological target: T1, murine pro-myostatin; test: cell-based or functional assay; remark: another data set of the same source

Row | Binder | Activity Assay - 293T cells EC50 [nM]
52 | B12 | 307

biological target: T1, murine pro-myostatin; test: cell-based or functional assay; remark: another data set of the same source

Row | Binder | EC50 Activation Assay [nM]
53 | B2 | 373
54 | B4 | 1380
55 | B5 | 1600
56 | B7 | 555

biological target: T1, murine pro-myostatin; test: ForteBio Octet BLI kinetics

Row | Binder | Kd [nM] | koff [s⁻¹] | kon [M⁻¹ s⁻¹]
57 | B10 | 11 | 0.00262 | 237000

biological target: T1, murine pro-myostatin; test: ForteBio Octet BLI kinetics; remark: another data set of the same source

Row | Binder | Kd [nM] | koff [s⁻¹] | kon [M⁻¹ s⁻¹]
58 | B11 | 1.08 | 0.000272 | 253000

biological target: T1, murine pro-myostatin; test: ForteBio Octet BLI kinetics; remark: another data set of the same source

Row | Binder | Kd [nM] | koff [s⁻¹] | kon [M⁻¹ s⁻¹]
59 | B12 | 0.954 | 0.000281 | 294000

biological target: T4, pro-myostatin (proGDF8), species not stated in the experiment (UniProt O14793 24-375, limits assumed); test: ForteBio Octet, biotinylated antigen on streptavidin sensor; IgG1
T4 construct: also called pro/latent-myostatin

Row | Binder | Kd [nM]
60 | B2 | 300
61 | B5 | 500
62 | B6 | 22000
63 | B7 | 28000

biological target: proGDF11 (UniProt O95390 25-407, limits assumed); test: ForteBio Octet QKe BLI, antibody 50 µg/mL; flagged * non-specific binding, fitted to a poor response
Sequence (O95390 25-407 limits assumed): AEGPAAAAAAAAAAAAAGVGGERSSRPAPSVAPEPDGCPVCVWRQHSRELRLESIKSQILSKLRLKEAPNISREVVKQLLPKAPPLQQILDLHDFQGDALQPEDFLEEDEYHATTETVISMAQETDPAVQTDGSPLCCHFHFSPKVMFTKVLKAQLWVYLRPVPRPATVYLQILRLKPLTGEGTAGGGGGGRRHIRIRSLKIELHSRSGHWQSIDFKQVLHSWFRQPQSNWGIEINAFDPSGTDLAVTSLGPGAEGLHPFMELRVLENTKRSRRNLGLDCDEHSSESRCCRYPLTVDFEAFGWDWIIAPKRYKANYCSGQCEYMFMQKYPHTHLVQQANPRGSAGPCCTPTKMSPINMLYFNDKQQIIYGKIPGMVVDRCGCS
Experimental: Binding affinities of antibody candidates were determined using the FortéBio Octet QKe dip and read label free assay system utilizing bio-layer interferometry. Antigens were immobilized to biosensors (streptavidin-coated biosensors for proGDF8, proGDF11 and proActivin; direct amine coupling for all others) in each experiment and the antibodies/constructs were presented in solution at high concentration (50 μg/mL) to measure binding interactions.

Row | Binder | Kd [nM]
64 | B11 | 125
65 | B12 | 60.7
